This is an account of results in PMC4189797, “Mycoplasma synoviae enolase is a plasminogen/fibronectin binding protein” (BMC Veterinary Research, 2014).

In the data set the test system is O=C(O)[C@@H](CO)OP(=O)(O)O. As to the kind of experiment: purified protein. To be noted: 100 mM HEPES, 7.7 mM KCl, 10 mM MgCl2, pH 7.5, 30°C, 2-PGA 0.5, 1.5 and 2.0 mM.

Take “rMsEno (recombinant M. synoviae enolase) (Mycoplasmopsis synoviae 53)”: the Km came out at 1100 µM.

For orientation: Km means the substrate concentration at which the rate is half of its maximum.
